In the DeepSol protein solubility set:

Assay: soluble on expression in E. coli; label from the status in PepcDB or PDB records

**Q.** Which “soluble on expression in E. coli” value does the source give for “MITPVSSFSIDDLLRGHSNEIQRILKLDQTSPTPQSSSDEGSEKSSISVMSVPLTNELTPTITPALSDQLWLAAAAFPIEHSLLLAQRNGVFPGFWSTADQIRLSNATKAYRRLRLECSRRKARTVFSDQQLQGLERRFESQRYLSTPERIELANALNLSETQVKTWFQNRRMKHKKVVRKDDNSVDDDNGNDNESE” here?
**A.** not soluble

**Q.** For “ANQLRELKQTHTYTVFGYTDGGFAVISADDLAPELLGVSESNFVETDNPSFKWWLKAIDEVITNAVKSNKPLNVIKPDPSKYAAEVSTLLTTTWGQQMPYNKLLPKTKKGRLITGAVATATAQVLNYFKYPVRGIGSHTVHYPANDPSGVAISADFGNTTYDWANMKDNYSGNYTEAEANAVATLMLHCGVASEMQYGGPNEGSGAYMTDCAAGLRTYFGFTDAEYITRANYTDEQWMDIVFSELTKGHPLIYGGVSPGSMGQDAGHAFVIDGYNKAGLVSVNWGWNGDVDGYYKIDLLNPGNMYSFTAEQDMVRGVYGKP”, which “soluble on expression in E. coli” value is on record?
**A.** soluble

**Q.** For “MPYRNCWSKIMKKLINDVQDVLDEQLAGLAKAHPSLTLHQDPVYVTRADAPVAGKVALLSGGGSGHEPMHCGYIGQGMLSGACPGEIFTSPTPDKIFECAMQVDGGEGVLLIIKNYTGDILNFETATELLHDSGVKVTTVVIDDDVAVKDSLYTAGRRGVANTVLIEKLVGAAAERGDSLDACAELGRKLNNQGHSIGIALGACTVPAAGKPSFTLADNEMEFGVGIHGEPGIDRRPFSSLDQTVDEMFDTLLVNGSYHRTLRFWDYQQGSWQEEQQTKQPLQSGDRVIALVNNLGATPLSELYGVYNRLTTRCQQAGLTIERNLIGAYCTSLDMTGFSITLLKVDDETLALWDAPVHTPALNWGK”, which “soluble on expression in E. coli” value is on record?
**A.** soluble

**Q.** Which “soluble on expression in E. coli” value does the source give for “HHHHHHHSEMTPREIVSELDKHIIGQDNAKRSVAIALRNRWRRMQLNEELRHEVTPKNILMIGPTGVGKTEIARRLAKLANAPFIKVEATKFTEVGYVGKEVDSIIRDLTDAAVKMVRVQAIEKNRYRAEELAEERILDVLIPPAKNNWGQTEQQQEPSAARQAFRKKLREGQLDDKEIEIDLAAAPMGVEIMAPPGMEEMTSQLQSMFQNLGGQKQKARKLKIKDAMKLLIEEEAAKLVNPEELKQDAIDAVEQHGIVFIDEIDKICKRGESSGPDVSREGVQRDLLPLVEGCTVSTKHGMVKTDHILFIASGAFQIAKPSDLIPELQGRLPIRVELQALTTSDFERILTEPNASITVQYKALMATEGVNIEFTDSGIKRIAEAAWQVNESTENIGARRLHTVLERLMEEISYDASDLSGQNITIDADYVSKHLDALVADEDLSRFIL” here?
**A.** soluble

**Q.** Which “soluble on expression in E. coli” value does the source give for “MDLLDKVMGEMGSKPGSTAKKPATSASSTPRTNVWGTAKKPSSQQQPPKPLFTTPGSQQGSLGGRIPKREHTDRTGPDPKRKPLGGLSVPDSFNNFGTFRVQMNAWNLDISKMDERISRIMFRATLVHTDGRRFELSLGVSAFSGDVNRQQRRQAQCLLFRAWFKRNPELFKGMTDPAIAAYDAAETIYVGCSFFDVELTEHVCHLTEADFSPQEWKIVSLISRRSGSTFEIRIKTNPPIYTRGPNALTLENRSELTRIIEAITDQCLHNEKFLLYSSGTFPTKGGDIASPDEVTLIKSGFVKTTKIVDRDGVPDAIMTVDTTKSPFYKDTSLLKFFTAKMDQLTNSGGGPRGHNGGRERRDGGGNSRKYDDRRSPRDGEIDYDERTVSHYQRQFQDERISDGMLNTLKQSLKGLDCQPIHLKDSKANRSIMIDEIHTGTADSVTFEQKLPDGEMKLTSITEYYLQRYNYRLKFPHLPLVTSKRAKCYDFYPMELMSILPGQRIKQSHMTVDIQSYMTGKMSSLPDQHIKQSKLVLTEYLKLGDQPANRQMDAFRVSLKSIQPIVTNAHWLSPPDMKFANNQLYSLNPTRGVRFQTNGKFVMPARVKSVTIINYDKEFNRNVDMFAEGLAKHCSEQGMKFDSRPNSWKKVNLGSSDRRGTKVEIEEAIRNGVTIVFGIIAEKRPDMHDILKYFEEKLGQQTIQISSETADKFMRDHGGKQTIDNVIRKLNPKCGGTNFLIDVPESVGHRVVCNNSAEMRAKLYAKTQFIGFEMSHTGARTRFDIQKVMFDGDPTVVGVAYSLKHSAQLGGFSYFQESRLHKLTNLQEKMQICLNAYEQSSSYLPETVVVYRVGSGEGDYPQIVNEVNEMKLAARKKKHGYNPKFLVICTQRNSHIRVFPEHINERGKSMEQNVKSGTCVDVPGASHGYEEFILCCQTPLIGTVKPTKYTIIVNDCRWSKNEIMNVTYHLAFAHQVSYAPPAIPNVSYAAQNLAKRGHNNYKTHTKLVDMNDYSYRIKEKHEEIISSEEVDDILMRDFIETVSNDLNAMTINGRNFWA” here?
**A.** not soluble

**Q.** For “MKVYLESFGCSASQASAEIMKASIGKLGHELLSPENAGQAEVYICNSCTVKYTTEQKILYKIRSMGEKGVQVIVSGCMPEVQLEDILHANPEAHILGVNAVSRLGDLLSTIEQRKKTGIPGGERLEIRTSEPQGFLNVPRERSNPNIHICQISQGCNFACSYCIVKHARGKLLSFPPEEIIEDIRSAVADGCREIWLTSQDDSQYGMDTGVKLPELLRAISEIPGDFKVRVGMMNPFSVLPILDDLVDAFDSDKIFKLLHLPIQSASHSVLKKMNRLHKMDSVDEIITKFRAHFEDLSLFTDIIVGFCDETDEDFEETIEWVKKYRPEKINISRYSPRPHTKAFSFRNLDSRISVKRSHQLHKVCEQIKIESKNEMIGWKGRVFVSKYTEIGDVLTRTDSYRPVVISGSDLRPGEYAEVKITGAKPGYFLGKLVSLEHHHHHH”, which “soluble on expression in E. coli” value is on record?
**A.** soluble

**Q.** For “MGSDKIHHHHHHLLPKYNILTEDQVQKIHENTMKILEEIGIEFEYEPALEVFRREGQKVEGKRVYLTREFVESKLKSAPAEFTLHARNPENNVVIGGDNIVFMPGYGAPFIYELDGSRRKTTLQDYENFAKLAGASKNMHLSGGTMAEPQDIPDGVRHLQMLYSSIKNSDKCFMGSAEGKERAEDSVEIAAILFGGKDVIKEKPVLVSLINSLTPLKYDERMLGALMAYAEAGQAVIIASLVMAGSTGPASLAGTLSLQNAEVLAGISLAQSINPGTPVIYGSTSALSDMRSGSLSIGSPECALFISASAQLARFYGVPSRSGGGLNDSKTVDAQAGYESMMTLMAANLTGVNFVLHTAGILQYFMAMSYEKFIMDDEIAGMLLHYMKGYTFDEDGMAFDVIEKVGPGGHFLTQKHTRKNHKREFYTPTLSDRSAYDTWAKEKLETKQRAHARWQQILANYVPPALDPEIDAKLQAFIAQRGKEVGEE”, which “soluble on expression in E. coli” value is on record?
**A.** not soluble

**Q.** With “MAHHHHHHMEIADRPLSEIIKEQKIDKELRRRHRGNQSGGNSDKKSVNRQGSSSQRQRNNNNNNTSGSRSRGSGNRSGGNKPESGRRRFRTDGGRRRGGNAVSAGSGSFGASRRRLADRADRRRRGALGGDNGNDGFGRGRDRDNNDRRGVKSAPRRRRISGAERNERNRNRDRRSALSRSRFDRDY” as the sequence, how does the “soluble on expression in E. coli” value read?
**A.** soluble

**Q.** Which “soluble on expression in E. coli” value does the source give for “MEVKIFNTQDVQDFLRVASGLEQEGGNPRVKQIIHRVLSDLYKAIEDLNITSDEYWAGVAYLNQLGANQEAGLLSPGLGFDHYLDMRMDAEDAALGIENATPRTIEGPLYVAGAPESVGYARMDDGSDPNGHTLILHGTIFDADGKPLPNAKVEIWHANTKGFYSHFDPTGEQQAFNMRRSIITDENGQYRVRTILPAGYGCPPEGPTQQLLNQLGRHGNRPAHIHYFVSADGHRKLTTQINVAGDPYTYDDFAYATREGLVVDAVEHTDPEAIKANDVEGPFAEMVFDLKLTRLVDGVDNQVVDRPRLAV” here?
**A.** soluble

**Q.** With “MSLKRSSICYRASKPLIASLVMSVWNAVHLSRRFAALPQAFYTPVHPQPLQNVRWGMWNSRLAQQFGLPEAPNDELLLSLSGQQLPADFSPVAMKYAGHQFGVYNPDLGDGRGLLLAEMATKQGEVFDIHLKGAGLTPYSRMGDGRAVLRSSLREYLCSEAMAGLGIATTRALALMSSETPVYREREERGALLVRLAHTHVRFGHFEHFFYTDQHANLKLLADKVIEWHFPDCVQTSKPYAAWFSQVVERTALMIAQWQAYGFNHGVMNTDNMSILGETFDYGPFAFLDDYDPNFICNHSDYQGRYAFDQQPRIGLWNLSALAHALSPLIDKDDLEAALGSYSERLNLHFSRLMRAKLGLATQQEGDGELFADFFALLANNHTDYTRFLRELSCLDRQGNEAVIDLVLDREAAKTWLTRYLERAARELGQEGRPISTRERCQAMRQVNPKYILRNYLAQQAIEFAERGDFEEMQRLATVLASPYAEHPEFERYAKLPPEWGKKLEISCSSEGGSHHHHHH” as the sequence, how does the “soluble on expression in E. coli” value read?
**A.** soluble
